Experimental data as given in paper PMC10201421.

Target: CTD (nucleocapsid C-terminal RNA binding domain) (SARS-CoV-2, UniProt P0DTC9 247-364)
Assay: ITC

B1: s2m-CoV-2 (structured_RNA)
RNA: GGUUCACCGAGGCCACGCGGAGUACGAUCGAGUGUACAGUGAACC
Kd: 600 ± 200 nM
